# From publication PMC4919659 (2016)
# B1: EGFP-RASSF5C (wild type) [not stated] / mCherry-SARAH_(MST1) [not stated] (parent complex)
# chain 1: MTVDSSMSSGYCSLDEELEDCFFTAKTTFFRNAQSKHLSKNVCKPVEETQRPPTLQEIKQKIDSYNTREKNCLGMKLSEDGTYTGFIKVHLKLRRPVTVPAGIRPQSIYDAIKEVNLAATTDKRTSFYLPLDAIKQLHISSTTTVSEVIQGLLKKFMVVDNPQKFALFKRIHKDGQVLFQKLSIADRPLYLRLLAGPDTEVLSFVLKENETGEVEWDAFSIPELQNFLTILEKEEQDKIQQVQKKYDKFRQKLEEALRESQGKPG
# chain 2: DYEFLKSWTVEDLQKRLLALDPMMEQEIEEIRQKYQSKRQPILDAIEAKKRRQQNF
# B2: EGFP-RASSF1 (wild type) [not stated] / myc-MST1 K59R [not stated] (parent complex)
# chain 1: MSGEPELIELRELAPAGRAGKGRTRLERANALRIARGTACNPTRQLVPGRGHRFQPAGPATHTWCDLCGDFIWGVVRKGLQCAHCKFTCHYRCRALVCLDCCGPRDLGWEPAVERDTNVDEPVEWETPDLSQAEIEQKIKEYNAQINSNLFMSLNKDGSYTGFIKVQLKLVRPVSVPSSKKPPSLQDARRGPGRGTSVRRRTSFYLPKDAVKHLHVLSRTRAREVIEALLRKFLVVDDPRKFALFERAERHGQVYLRKLLDDEQPLRLRLLAGPSDKALSFVLKENDSGEVNWDAFSMPELHNFLRILQREEEEHLRQILQKYSYCRQKIQEALHACPLG
# chain 2: METVQLRNPPRRQLKKLDEDSLTKQPEEVFDVLEKLGEGSYGSVYKAIHKETGQIVAIRQVPVESDLQEIIKEISIMQQCDSPHVVKYYGSYFKNTDLWIVMEYCGAGSVSDIIRLRNKTLTEDEIATILQSTLKGLEYLHFMRKIHRDIKAGNILLNTEGHAKLADFGVAGQLTDTMAKRNTVIGTPFWMAPEVIQEIGYNCVADIWSLGITAIEMAEGKPPYADIHPMRAIFMIPTNPPPTFRKPELWSDNFTDFVKQCLVKSPEQRATATQLLQHPFVRSAKGVSILRDLINEAMDVKLKRQESQQREVDQDDEENSEEDEMDSGTMVRAVGDEMGTVRVASTMTDGANTMIEHDDTLPSQLGTMVINAEDEEEEGTMKRRDETMQPAKPSFLEYFEQKEKENQINSFGKSVPGPLKNSSDWKIPQDGDYEFLKSWTVEDLQKRLLALDPMMEQEIEEIRQKYQSKRQPILDAIEAKKRRQQNF
# B3: EGFP-RASSF1 (wild type) [not stated] / mCherry-SARAH_(MST1) [not stated] (parent complex)
# chain 1: B2 chain 1
# chain 2: B1 chain 2
# B4: EGFP-RASSF5C (wild type) [not stated] / myc-MST1 K59R [not stated] (parent complex)
# chain 1: B1 chain 1
# chain 2: B2 chain 2
# Variants of: B1
# Assay: FRET-FLIM in cells (EGFP donor lifetime, monoexponential fit, wide-field imaging); co-expressed with mCherry-SARAH(MST1); median of segmented cells; parent: 2.27e+03; read off a plot
row,response,Variant
1,~2380 ps,chain 1 L224P
2,~2430 ps,chain 1 L231P
3,~2490 ps,chain 1 L228P

# Variants of: B2
# Assay: co-immunoprecipitation (IP anti-myc, IB anti-GFP), band quantification; n = 3; parent: 1.05; read off a plot
row,ratio to parent,Variant
1,~0.07,chain 1 L305P
2,~0.13,chain 1 L308P
3,~0.32,chain 1 L301P

# Variants of: B3
# Assay: FRET-FLIM in cells (EGFP donor lifetime, monoexponential fit, wide-field imaging); co-expressed with mCherry-SARAH(MST1); median of segmented cells; parent: 2.25e+03; read off a plot
row,response,Variant
1,~2500 ps,chain 1 L308P
2,~2510 ps,chain 1 L301P
3,~2490 ps,chain 1 L305P

# Variants of: B4
# Assay: co-immunoprecipitation (IP anti-myc, IB anti-GFP), band quantification; n = 3; parent: 1.02; read off a plot
row,ratio to parent,Variant
1,~0.85,chain 1 L231P
2,~0.9,chain 1 L228P
3,~0.98,chain 1 L224P
